# Source: PMC3850785
# What was measured:
# Assay in all cases: purified protein
# Conditions in all cases: 5 mM GSH, 0.10 M Tris-HCl pH 7.7, 37 °C, 1 h
# purified protein [1] = substrate: C1O[C@@H]1[C@@H]1CO1
# purified protein [2] = substrate: C1O[C@H]1[C@H]1CO1
# purified protein [3] = substrate: C1O[C@@H]1[C@H]1CO1
Protein,Km (purified protein [1]) [mM],kcat (purified protein [1]) [s⁻¹],kcat/Km (purified protein [1]) [M⁻¹ s⁻¹],Km (purified protein [2]) [mM],kcat (purified protein [2]) [s⁻¹],kcat/Km (purified protein [2]) [M⁻¹ s⁻¹],Km (purified protein [3]) [mM],kcat (purified protein [3]) [s⁻¹],kcat/Km (purified protein [3]) [M⁻¹ s⁻¹]
human GST A3-3 (Homo sapiens) (protein) AGKPKLHYFNGRGRMEPIRWLLAAAGVEFEEKFIGSAEDLGKLRNDGSLMFQQVPMVEIDGMKLVQTRAILNYIASKYNLYGKDIKERALIDMYTEGMADLNEMILLLPLCRPEEKDAKIALIKEKTKSRYFPAFEKVLQSHGQDYLVGNKLSRADISLVELLYYVEELDSSLISNFPLLKALKTRISNLPTVKKFLQPGSPRKPPADAKALEEARKIFRF,0.48 ± 0.33,0.0253,66.7,0.51 ± 0.08,0.028,55,0.75 ± 0.12,0.0302,40
human GST M1-1 (Homo sapiens) (protein) PMILGYWDIRGLAHAIRLLLEYTDSSYEEKKYTMGDAPDYDRSQWLNEKFKLGLDFPNLPYLIDGAHKITQSNAILCYIARKHNLCGETEEEKIRVDILENQTMDNHMQLGMICYNPEFEKLKPKYLEELPEKLKLYSEFLGKRPWFAGNKITFVDFLVYDVLDLHRIFEPKCLDAFPNLKDFISRFEGLEKISAYMKSSRFLPRPVFSKMAVWGNK,0.73 ± 0.06,,,0.81 ± 0.05,0.074,91.7,0.92 ± 0.33,0.0497,56.7
human GST A1-1 (Homo sapiens) (protein) AEKPKLHYFNARGRMESTRWLLAAAGVEFEEKFIKSAEDLDKLRNDGYLMFQQVPMVEIDGMKLVQTRAILNYIASKYNLYGKDIKERALIDMYIEGIADLGEMILLLPVCPPEEKDAKLALIKEKIKNRYFPAFEKVLKSHGQDYLVGNKLSRADIHLVELLYYVEELDSSLISSFPLLKALKTRISNLPTVKKFLQPGSPRKPPMDEKSLEEARKIFRF,0.30 ± 0.05,0.0228,78.3,0.32 ± 0.01,0.0218,68.3,0.54 ± 0.03,0.0342,63.3
human GST T1-1 (Homo sapiens) (protein) GLELYLDLLSQPCRAVYIFAKKNDIPFELRIVDLIKGQHLSDAFAQVNPLKKVPALKDGDFTLTESVAILLYLTRKYKVPDYWYPQDLQARARVDEYLAWQHTTLRRSCLRALWHKVMFPVFLGEPVSPQTLAATLAELDVTLQLLEDKFLQNKAFLTGPHISLADLVAITELMHPVGAGCQVFEGRPKLATWRQRVEAAVGEDLFQEAHEVILKAKDFPPADPTIKQKLMPWVLAMIR,0.79 ± 0.03,0.0618,78.3,0.93 ± 0.01,0.0617,66.7,0.37 ± 0.01,0.0403,108
human GST P1-1 (Homo sapiens) (protein) PPYTVVYFPVRGRCAALRMLLADQGQSWKEEVVTVETWQEGSLKASCLYGQLPKFQDGDLTLYQSNTILRHLGRTLGLYGKDQQEAALVDMVNDGVEDLRCKYISLIYTNYEAGKDDYVKALPGQLKPFETLLSQNQGGKTFIVGDQISFADYNLLDLLLIHEVLAPGCLDAFPLLSAYVGRLSARPKLKAFLASPEYVNLPINGNGKQ,0.74 ± 0.33,0.044,65,0.91 ± 0.01,0.0442,48.3,0.59 ± 0.15,0.0265,46.7
rat GST 5-5 (Rattus norvegicus) (protein) VLELYLDLLSQPCRAIYIFAKKNNIPFQMHTVELRKGEHLSDAFAQVNPMKKVPAMKDGGFTLCESVAILLYLAHKYKVPDHWYPQDLQARARVDEYLAWQHTTLRRSCLRTLWHKVMFPVFLGEQIRPEMLAATLADLDVNVQVLEDQFLQDKDFLVGPHISLADVVAITELMHPVGGGCPVFEGRPRLAAWYRRVEAAVGKDLFLEAHEVILKVRDCPPADPVIKQKLMPRVLTMIQ,0.77 ± 0.02,0.0638,83.3,0.80 ± 0.06,0.0573,71.7,0.83 ± 0.15,0.0308,38.3
